Reference: publication PMC7705432 (Cell Research, 2020)

B1: P17 Fab (Fab, V domains shown)
VH: QQLVESGGGVVQPGRSLRLSCAASGFTFSSYAMHWVRQAPGKGLEWVAVISYDGSNKYYADSVKGRFTISRDNSKNTLYLQMNSLRAEDTAVYYCARHATLMNNKDIWGQGTLVTVSS
VL: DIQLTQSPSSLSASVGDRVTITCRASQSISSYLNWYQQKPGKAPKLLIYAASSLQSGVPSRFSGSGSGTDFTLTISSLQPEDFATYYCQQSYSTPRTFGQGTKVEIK
notes: also called P17 Fabs
B2: H014 Fab (Fab, V domains shown)
VH: VQLVQSGAEVKKPGATVKISCKVSGYSFSNYYIHWVKQAPGKSLEWIGYIDPFNGGTSDNLKFKGAATLTADTSTDTAYMELSSLRSEDTAVYYCARSEYDPYYVMDYWGQGTTVTVSS
VL: IVLTQSPFQSVSPKEKVTITCRASQSISSNLHWYQQKPDQSPKLLIKYASQSISGIPSRFSGSGSGTDFTLTINSLEAEDFGIYFCQQTNFWPYIFGQGTKLEIL

Target: T1, SARS-CoV-2 S trimer (SARS-CoV-2, Wuhan-Hu-1 (GenBank …, stabilised))
T1 construct: also called Spike (S) protein
Assay: cryo-EM structure
Details: both partners purified

Binder	stoichiometry N [Fabs per S trimer]
B1	3
B2	3
